What was measured:
Assay in all cases: cell-based or functional assay
[1] = target: Env of HIV-1 strain 1394C9G1(Rev-) (HIV-1)
[2] = target: HIV-1 Env of strain T251-18 (HIV-1)
[3] = target: Env of HIV-1 strain 0815.v3.c3 (HIV-1)
[4] = target: HIV-1 Env of strain X1254_c3 (HIV-1)
[5] = target: HIV-1 Env of strain CNE5 (HIV-1)
[6] = target: Env of HIV-1 strain ZM109F.PB4 (HIV-1)
[7] = target: Env of HIV-1 strain ZM135M.PL10a (HIV-1)
[8] = target: HIV-1 Env of strain 3365.v2.c2 (HIV-1)
[9] = target: HIV-1 Env of strain 620345.c01 (HIV-1)
[10] = target: HIV-1 Env of strain 6545.v4.c1 (HIV-1)
[11] = target: HIV-1 Env of strain Q23.17 (HIV-1)
[12] = target: Env of HIV-1 strain HIV-16845-2.22 (HIV-1)
[13] = target: HIV-1 Env of strain REJO4541.67 (HIV-1)
[14] = target: Env of HIV-1 strain T255-34 (HIV-1)
[15] = target: Env of HIV-1 strain CNE21 (HIV-1)
[16] = target: HIV-1 Env of strain 3817.v2.c59 (HIV-1)
[17] = target: Env of HIV-1 strain 6240_08_TA5_4622 (HIV-1)
[18] = target: Env of HIV-1 strain TRJO4551.58 (HIV-1)
[19] = target: HIV-1 Env of strain Du156.12 (HIV-1)
[20] = target: HIV-1 Env of strain T257-31 (HIV-1)
[21] = target: HIV-1 Env of strain CNE30 (HIV-1)
[22] = target: Env of HIV-1 strain 928-28 (HIV-1)
[23] = target: HIV-1 Env of strain T278-50 (HIV-1)
[24] = target: Env of HIV-1 strain R2184.c04 (HIV-1)
[25] = target: HIV-1 Env of strain ZM247v1(Rev-) (HIV-1)
[26] = target: Env of HIV-1 strain X1254_c3 (HIV-1)
[27] = target: Env of HIV-1 strain 235-47 (HIV-1)
[28] = target: Env of HIV-1 strain Ce1176_A3 (HIV-1)
[29] = target: HIV-1 Env of strain 191821_E6_1 (HIV-1)
[30] = target: Env of HIV-1 strain Ce2010_F5 (HIV-1)
[31] = target: HIV-1 Env of strain 1012_11_TC21_3257 (HIV-1)

NIH45-46 (antibody), sequence (VH): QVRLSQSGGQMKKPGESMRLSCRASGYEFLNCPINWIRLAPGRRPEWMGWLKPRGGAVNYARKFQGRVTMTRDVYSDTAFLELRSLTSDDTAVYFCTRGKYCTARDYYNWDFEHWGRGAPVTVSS
NIH45-46 (antibody), sequence (V domain): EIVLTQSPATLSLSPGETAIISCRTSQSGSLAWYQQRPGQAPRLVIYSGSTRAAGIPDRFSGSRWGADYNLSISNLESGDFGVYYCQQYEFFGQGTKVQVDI

With NIH45-46 (antibody) as the substance, how does the IC80 [1] read?
The IC80 was 0.38 µg/mL.

What about the IC50, pseudovirus neutralization [2] of the same substance?
The IC50, pseudovirus neutralization was 1.35 µg/mL.

And the IC80 [3]?
Its IC80 is 0.052 µg/mL.

And the IC50, pseudovirus neutralization [4]?
Its IC50, pseudovirus neutralization is 0.032 µg/mL.

What about the IC50, pseudovirus neutralization [5] of the same substance?
Its IC50, pseudovirus neutralization is 0.09 µg/mL.

And the IC80 [6]?
Its IC80 is 0.437 µg/mL.

What about the IC80 [7] of the same substance?
Its IC80 is 2.79 µg/mL.

What about the IC50, pseudovirus neutralization [8] of the same substance?
The IC50, pseudovirus neutralization was 0.029 µg/mL.

What about the IC50, pseudovirus neutralization [9] of the same substance?
Its IC50, pseudovirus neutralization is over 50 µg/mL.

What about the IC50, pseudovirus neutralization [10] of the same substance?
The IC50, pseudovirus neutralization was over 50 µg/mL.

What about the IC50, pseudovirus neutralization [11] of the same substance?
The IC50, pseudovirus neutralization was 0.14 µg/mL.

What about the IC80 [12] of the same substance?
The IC80 was 22.6 µg/mL.

And the IC50, pseudovirus neutralization [13]?
The IC50, pseudovirus neutralization was 0.014 µg/mL.

What about the IC80 [14] of the same substance?
The IC80 was 3.44 µg/mL.

What about the IC80 [15] of the same substance?
The IC80 was 38.1 µg/mL.

What about the IC50, pseudovirus neutralization [16] of the same substance?
The IC50, pseudovirus neutralization was over 50 µg/mL.

And the IC80 [17]?
Its IC80 is 1.55 µg/mL.

And the IC80 [18]?
Its IC80 is 0.13 µg/mL.

And the IC50, pseudovirus neutralization [19]?
The IC50, pseudovirus neutralization was 0.02 µg/mL.

What about the IC50, pseudovirus neutralization [20] of the same substance?
The IC50, pseudovirus neutralization was 0.49 µg/mL.

What about the IC50, pseudovirus neutralization [21] of the same substance?
The IC50, pseudovirus neutralization was 0.309 µg/mL.

What about the IC80 [22] of the same substance?
The IC80 was 0.64 µg/mL.

What about the IC50, pseudovirus neutralization [23] of the same substance?
The IC50, pseudovirus neutralization was over 50 µg/mL.

And the IC80 [24]?
Its IC80 is 0.127 µg/mL.

And the IC50, pseudovirus neutralization [25]?
The IC50, pseudovirus neutralization was 2.94 µg/mL.

And the IC80 [26]?
Its IC80 is 0.107 µg/mL.

What about the IC80 [27] of the same substance?
The IC80 was 1.49 µg/mL.

And the IC80 [28]?
Its IC80 is 3.17 µg/mL.

And the IC50, pseudovirus neutralization [29]?
The IC50, pseudovirus neutralization was 0.09 µg/mL.

And the IC80 [30]?
The IC80 was 0.357 µg/mL.

And the IC50, pseudovirus neutralization [31]?
Its IC50, pseudovirus neutralization is 0.01 µg/mL.
